Results taken from patent US20220251207A1.

Target: human hCTLA4-RFP protein on 293 cells (human) (UniProt P16410)
Assay: flow cytometry of cell conjugates; 293-hCTLA4-RFP cells with 100 nM antibody, then five times as many 293-B7-1-GFP cells (B7-1 is the ligand tested for blocking); lower right quadrant (RFP+GFP-) 6.13

Sequence of human hCTLA4-RFP protein on 293 cells (human) (P16410 36-223): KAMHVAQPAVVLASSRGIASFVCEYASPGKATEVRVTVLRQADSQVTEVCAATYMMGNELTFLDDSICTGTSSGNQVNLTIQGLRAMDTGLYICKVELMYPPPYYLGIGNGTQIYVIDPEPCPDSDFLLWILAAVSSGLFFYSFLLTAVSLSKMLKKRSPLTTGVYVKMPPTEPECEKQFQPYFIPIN

hIgG1 (antibody)
% RFP+GFP+ events (upper right quadrant): 26.5%
